Data from publication PMC6862323, “Substitution of Arginine 120 in Human D-Amino Acid Oxidase Favors FAD-Binding and Nuclear Mistargeting” (Frontiers in Molecular Biosciences, 2019).

Test system: C[C@@H](N)C(=O)O
Assay: purified protein, by the assay type
Conditions: other: air saturation, 25°C, pH 8.5, 0.2 mM FAD

R120E hDAAO variant (Homo sapiens; R120E), sequence (chain, as listed by the source R120E R120E): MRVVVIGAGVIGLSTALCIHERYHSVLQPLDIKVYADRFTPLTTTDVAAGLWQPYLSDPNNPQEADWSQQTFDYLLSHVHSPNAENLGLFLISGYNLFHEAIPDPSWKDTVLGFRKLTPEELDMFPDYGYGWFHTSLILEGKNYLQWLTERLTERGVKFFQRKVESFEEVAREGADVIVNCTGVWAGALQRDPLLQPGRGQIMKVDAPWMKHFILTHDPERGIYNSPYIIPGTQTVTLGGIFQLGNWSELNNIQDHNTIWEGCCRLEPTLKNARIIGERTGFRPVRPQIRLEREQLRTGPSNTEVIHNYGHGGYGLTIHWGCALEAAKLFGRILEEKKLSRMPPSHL
R120L hDAAO variant (Homo sapiens; R120L), sequence (chain, as listed by the source R120L R120L): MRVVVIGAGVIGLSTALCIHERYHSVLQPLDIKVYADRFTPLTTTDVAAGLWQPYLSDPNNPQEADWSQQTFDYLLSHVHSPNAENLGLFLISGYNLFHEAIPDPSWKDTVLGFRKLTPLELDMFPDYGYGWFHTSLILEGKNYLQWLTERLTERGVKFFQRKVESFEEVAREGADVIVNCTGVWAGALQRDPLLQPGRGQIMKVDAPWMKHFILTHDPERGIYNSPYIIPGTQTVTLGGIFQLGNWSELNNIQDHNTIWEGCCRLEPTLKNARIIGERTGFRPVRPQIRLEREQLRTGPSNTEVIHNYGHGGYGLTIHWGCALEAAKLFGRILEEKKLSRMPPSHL

How did the Km turn out when “R120E hDAAO variant (Homo sapiens; R120E)” was run?
The Km was 1400 ± 100 µM.

What about the kcat of the same substance?
Its kcat is 12.6 s⁻¹.

And the kcat/Km?
The kcat/Km was 8900 M⁻¹ s⁻¹.

For “R120L hDAAO variant (Homo sapiens; R120L)”, which Km is on record?
Its Km is 2000 ± 300 µM.

What about the kcat of the same substance?
The kcat was 17.3 s⁻¹.

What about the kcat/Km of the same substance?
The kcat/Km was 8500 M⁻¹ s⁻¹.
